From patent US20220040297A1 (Chugai, published 2022)

B1: GLS3000 R54W (antibody, name in Kabat numbering, V domains shown)
VH: QVQLVESGGGVVQPGRSLRLSCAASGFTFSNAWMHWVRQAPGKGLEWVAQIKAKSNNYATYYAESVKGRFTISRDDSKNSLYLQMNSLKTEDTAVYYCRYVHYGAYYGVDAWGQGTTVTVSS
VL: DIVMTQSPLSLPVTPGEPASISCRSSQSLVHSNRNTYLHWYQQKPGQAPRLLIYKVSNWFSGVPDRFSGSGSGTDFTLKISRVEAEDVGVYYCGQGTQVPYTFGQGTKLEIK
notes: one-arm format as m2
B2: GLS3000 S27aD (antibody, name in Kabat numbering, V domains shown)
VH: QVQLVESGGGVVQPGRSLRLSCAASGFTFSNAWMHWVRQAPGKGLEWVAQIKAKSNNYATYYAESVKGRFTISRDDSKNSLYLQMNSLKTEDTAVYYCRYVHYGAYYGVDAWGQGTTVTVSS
VL: DIVMTQSPLSLPVTPGEPASISCRSSQDLVHSNRNTYLHWYQQKPGQAPRLLIYKVSNRFSGVPDRFSGSGSGTDFTLKISRVEAEDVGVYYCGQGTQVPYTFGQGTKLEIK
notes: one-arm format as m2
B3: GLS3000 S27aG (antibody, name in Kabat numbering, V domains shown)
VH: QVQLVESGGGVVQPGRSLRLSCAASGFTFSNAWMHWVRQAPGKGLEWVAQIKAKSNNYATYYAESVKGRFTISRDDSKNSLYLQMNSLKTEDTAVYYCRYVHYGAYYGVDAWGQGTTVTVSS
VL: DIVMTQSPLSLPVTPGEPASISCRSSQGLVHSNRNTYLHWYQQKPGQAPRLLIYKVSNRFSGVPDRFSGSGSGTDFTLKISRVEAEDVGVYYCGQGTQVPYTFGQGTKLEIK
notes: one-arm format as m2
B4: GLS3000 S26P (antibody, name in Kabat numbering, V domains shown)
VH: QVQLVESGGGVVQPGRSLRLSCAASGFTFSNAWMHWVRQAPGKGLEWVAQIKAKSNNYATYYAESVKGRFTISRDDSKNSLYLQMNSLKTEDTAVYYCRYVHYGAYYGVDAWGQGTTVTVSS
VL: DIVMTQSPLSLPVTPGEPASISCRSPQSLVHSNRNTYLHWYQQKPGQAPRLLIYKVSNRFSGVPDRFSGSGSGTDFTLKISRVEAEDVGVYYCGQGTQVPYTFGQGTKLEIK
notes: one-arm format as m2
B5: GLS3000 S25T (antibody, name in Kabat numbering, V domains shown)
VH: QVQLVESGGGVVQPGRSLRLSCAASGFTFSNAWMHWVRQAPGKGLEWVAQIKAKSNNYATYYAESVKGRFTISRDDSKNSLYLQMNSLKTEDTAVYYCRYVHYGAYYGVDAWGQGTTVTVSS
VL: DIVMTQSPLSLPVTPGEPASISCRTSQSLVHSNRNTYLHWYQQKPGQAPRLLIYKVSNRFSGVPDRFSGSGSGTDFTLKISRVEAEDVGVYYCGQGTQVPYTFGQGTKLEIK
notes: one-arm format as m2
B6: GLS3000 S26D (antibody, name in Kabat numbering, V domains shown)
VH: QVQLVESGGGVVQPGRSLRLSCAASGFTFSNAWMHWVRQAPGKGLEWVAQIKAKSNNYATYYAESVKGRFTISRDDSKNSLYLQMNSLKTEDTAVYYCRYVHYGAYYGVDAWGQGTTVTVSS
VL: DIVMTQSPLSLPVTPGEPASISCRSDQSLVHSNRNTYLHWYQQKPGQAPRLLIYKVSNRFSGVPDRFSGSGSGTDFTLKISRVEAEDVGVYYCGQGTQVPYTFGQGTKLEIK
notes: one-arm format as m2
B7: GLS3000 S27aI (antibody, name in Kabat numbering, V domains shown)
VH: QVQLVESGGGVVQPGRSLRLSCAASGFTFSNAWMHWVRQAPGKGLEWVAQIKAKSNNYATYYAESVKGRFTISRDDSKNSLYLQMNSLKTEDTAVYYCRYVHYGAYYGVDAWGQGTTVTVSS
VL: DIVMTQSPLSLPVTPGEPASISCRSSQILVHSNRNTYLHWYQQKPGQAPRLLIYKVSNRFSGVPDRFSGSGSGTDFTLKISRVEAEDVGVYYCGQGTQVPYTFGQGTKLEIK
notes: one-arm format as m2
B8: GLS3000 S25I (antibody, name in Kabat numbering, V domains shown)
VH: QVQLVESGGGVVQPGRSLRLSCAASGFTFSNAWMHWVRQAPGKGLEWVAQIKAKSNNYATYYAESVKGRFTISRDDSKNSLYLQMNSLKTEDTAVYYCRYVHYGAYYGVDAWGQGTTVTVSS
VL: DIVMTQSPLSLPVTPGEPASISCRISQSLVHSNRNTYLHWYQQKPGQAPRLLIYKVSNRFSGVPDRFSGSGSGTDFTLKISRVEAEDVGVYYCGQGTQVPYTFGQGTKLEIK
notes: one-arm format as m2
B9: GLS3000 S25E (antibody, name in Kabat numbering, V domains shown)
VH: QVQLVESGGGVVQPGRSLRLSCAASGFTFSNAWMHWVRQAPGKGLEWVAQIKAKSNNYATYYAESVKGRFTISRDDSKNSLYLQMNSLKTEDTAVYYCRYVHYGAYYGVDAWGQGTTVTVSS
VL: DIVMTQSPLSLPVTPGEPASISCRESQSLVHSNRNTYLHWYQQKPGQAPRLLIYKVSNRFSGVPDRFSGSGSGTDFTLKISRVEAEDVGVYYCGQGTQVPYTFGQGTKLEIK
notes: one-arm format as m2
B10: GLS3000 S27aP (antibody, name in Kabat numbering, V domains shown)
VH: QVQLVESGGGVVQPGRSLRLSCAASGFTFSNAWMHWVRQAPGKGLEWVAQIKAKSNNYATYYAESVKGRFTISRDDSKNSLYLQMNSLKTEDTAVYYCRYVHYGAYYGVDAWGQGTTVTVSS
VL: DIVMTQSPLSLPVTPGEPASISCRSSQPLVHSNRNTYLHWYQQKPGQAPRLLIYKVSNRFSGVPDRFSGSGSGTDFTLKISRVEAEDVGVYYCGQGTQVPYTFGQGTKLEIK
notes: one-arm format as m2
B11: GLS3000 S25P (antibody, name in Kabat numbering, V domains shown)
VH: QVQLVESGGGVVQPGRSLRLSCAASGFTFSNAWMHWVRQAPGKGLEWVAQIKAKSNNYATYYAESVKGRFTISRDDSKNSLYLQMNSLKTEDTAVYYCRYVHYGAYYGVDAWGQGTTVTVSS
VL: DIVMTQSPLSLPVTPGEPASISCRPSQSLVHSNRNTYLHWYQQKPGQAPRLLIYKVSNRFSGVPDRFSGSGSGTDFTLKISRVEAEDVGVYYCGQGTQVPYTFGQGTKLEIK
notes: one-arm format as m2
B12: GLS3000 S25V (antibody, name in Kabat numbering, V domains shown)
VH: QVQLVESGGGVVQPGRSLRLSCAASGFTFSNAWMHWVRQAPGKGLEWVAQIKAKSNNYATYYAESVKGRFTISRDDSKNSLYLQMNSLKTEDTAVYYCRYVHYGAYYGVDAWGQGTTVTVSS
VL: DIVMTQSPLSLPVTPGEPASISCRVSQSLVHSNRNTYLHWYQQKPGQAPRLLIYKVSNRFSGVPDRFSGSGSGTDFTLKISRVEAEDVGVYYCGQGTQVPYTFGQGTKLEIK
notes: one-arm format as m2
B13: GLS3000 S26E (antibody, name in Kabat numbering, V domains shown)
VH: QVQLVESGGGVVQPGRSLRLSCAASGFTFSNAWMHWVRQAPGKGLEWVAQIKAKSNNYATYYAESVKGRFTISRDDSKNSLYLQMNSLKTEDTAVYYCRYVHYGAYYGVDAWGQGTTVTVSS
VL: DIVMTQSPLSLPVTPGEPASISCRSEQSLVHSNRNTYLHWYQQKPGQAPRLLIYKVSNRFSGVPDRFSGSGSGTDFTLKISRVEAEDVGVYYCGQGTQVPYTFGQGTKLEIK
notes: one-arm format as m2
B14: GLS3000 S25A (antibody, name in Kabat numbering, V domains shown)
VH: QVQLVESGGGVVQPGRSLRLSCAASGFTFSNAWMHWVRQAPGKGLEWVAQIKAKSNNYATYYAESVKGRFTISRDDSKNSLYLQMNSLKTEDTAVYYCRYVHYGAYYGVDAWGQGTTVTVSS
VL: DIVMTQSPLSLPVTPGEPASISCRASQSLVHSNRNTYLHWYQQKPGQAPRLLIYKVSNRFSGVPDRFSGSGSGTDFTLKISRVEAEDVGVYYCGQGTQVPYTFGQGTKLEIK
notes: one-arm format as m2
B15: GLS3000 S27aE (antibody, name in Kabat numbering, V domains shown)
VH: QVQLVESGGGVVQPGRSLRLSCAASGFTFSNAWMHWVRQAPGKGLEWVAQIKAKSNNYATYYAESVKGRFTISRDDSKNSLYLQMNSLKTEDTAVYYCRYVHYGAYYGVDAWGQGTTVTVSS
VL: DIVMTQSPLSLPVTPGEPASISCRSSQELVHSNRNTYLHWYQQKPGQAPRLLIYKVSNRFSGVPDRFSGSGSGTDFTLKISRVEAEDVGVYYCGQGTQVPYTFGQGTKLEIK
notes: one-arm format as m2
B16: GLS3000 S25M (antibody, name in Kabat numbering, V domains shown)
VH: QVQLVESGGGVVQPGRSLRLSCAASGFTFSNAWMHWVRQAPGKGLEWVAQIKAKSNNYATYYAESVKGRFTISRDDSKNSLYLQMNSLKTEDTAVYYCRYVHYGAYYGVDAWGQGTTVTVSS
VL: DIVMTQSPLSLPVTPGEPASISCRMSQSLVHSNRNTYLHWYQQKPGQAPRLLIYKVSNRFSGVPDRFSGSGSGTDFTLKISRVEAEDVGVYYCGQGTQVPYTFGQGTKLEIK
notes: one-arm format as m2
B17: GLS3000 S27aN (antibody, name in Kabat numbering, V domains shown)
VH: QVQLVESGGGVVQPGRSLRLSCAASGFTFSNAWMHWVRQAPGKGLEWVAQIKAKSNNYATYYAESVKGRFTISRDDSKNSLYLQMNSLKTEDTAVYYCRYVHYGAYYGVDAWGQGTTVTVSS
VL: DIVMTQSPLSLPVTPGEPASISCRSSQNLVHSNRNTYLHWYQQKPGQAPRLLIYKVSNRFSGVPDRFSGSGSGTDFTLKISRVEAEDVGVYYCGQGTQVPYTFGQGTKLEIK
notes: one-arm format as m2
B18: GLS3000 S25D (antibody, name in Kabat numbering, V domains shown)
VH: QVQLVESGGGVVQPGRSLRLSCAASGFTFSNAWMHWVRQAPGKGLEWVAQIKAKSNNYATYYAESVKGRFTISRDDSKNSLYLQMNSLKTEDTAVYYCRYVHYGAYYGVDAWGQGTTVTVSS
VL: DIVMTQSPLSLPVTPGEPASISCRDSQSLVHSNRNTYLHWYQQKPGQAPRLLIYKVSNRFSGVPDRFSGSGSGTDFTLKISRVEAEDVGVYYCGQGTQVPYTFGQGTKLEIK
notes: one-arm format as m2
B19: GLS3000 S27aY (antibody, name in Kabat numbering, V domains shown)
VH: QVQLVESGGGVVQPGRSLRLSCAASGFTFSNAWMHWVRQAPGKGLEWVAQIKAKSNNYATYYAESVKGRFTISRDDSKNSLYLQMNSLKTEDTAVYYCRYVHYGAYYGVDAWGQGTTVTVSS
VL: DIVMTQSPLSLPVTPGEPASISCRSSQYLVHSNRNTYLHWYQQKPGQAPRLLIYKVSNRFSGVPDRFSGSGSGTDFTLKISRVEAEDVGVYYCGQGTQVPYTFGQGTKLEIK
notes: one-arm format as m2
B20: GLS3000 S25L (antibody, name in Kabat numbering, V domains shown)
VH: QVQLVESGGGVVQPGRSLRLSCAASGFTFSNAWMHWVRQAPGKGLEWVAQIKAKSNNYATYYAESVKGRFTISRDDSKNSLYLQMNSLKTEDTAVYYCRYVHYGAYYGVDAWGQGTTVTVSS
VL: DIVMTQSPLSLPVTPGEPASISCRLSQSLVHSNRNTYLHWYQQKPGQAPRLLIYKVSNRFSGVPDRFSGSGSGTDFTLKISRVEAEDVGVYYCGQGTQVPYTFGQGTKLEIK
notes: one-arm format as m2
B21: GLS3000 R77S (antibody, name in Kabat numbering, V domains shown)
VH: QVQLVESGGGVVQPGRSLRLSCAASGFTFSNAWMHWVRQAPGKGLEWVAQIKAKSNNYATYYAESVKGRFTISRDDSKNSLYLQMNSLKTEDTAVYYCRYVHYGAYYGVDAWGQGTTVTVSS
VL: DIVMTQSPLSLPVTPGEPASISCRSSQSLVHSNRNTYLHWYQQKPGQAPRLLIYKVSNRFSGVPDRFSGSGSGTDFTLKISSVEAEDVGVYYCGQGTQVPYTFGQGTKLEIK
notes: one-arm format as m2

What follows are binders tested against CD3ε homodimer protein (human, UniProt P07766 23-126, limits assumed) (assay: SPR, immobilized CD3ε homodimer;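 note: biacore T200 surface plasmon resonance at 25 °C, antibody variants flowed as analytes over amine-coupled CD3ε homodimer on a CM4 chip, variant binding amount divided by that of GLS3000 antibody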).
Chain of CD3ε homodimer protein (P07766 23-126 limits assumed): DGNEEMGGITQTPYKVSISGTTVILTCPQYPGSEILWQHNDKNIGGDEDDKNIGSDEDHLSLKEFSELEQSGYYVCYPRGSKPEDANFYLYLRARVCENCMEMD

Point of comparison: B21, “ratio of amounts bound (vs GLS3000)” value 0.92. Against it:
- B1 — lower, 0.78
- B2 — lower, 0.79
- B3 — higher, 1.03
- B4 — lower, 0.78
- B5 — lower, 0.83
- B6 — lower, 0.86
- B7 — higher, 1
- B8 — lower, 0.53
- B9 — lower, 0.21
- B10 — higher, 0.99
- B11 — higher, 1.01
- B12 — lower, 0.73
- B13 — lower, 0.74
- B14 — the same, 0.92
- B15 — lower, 0.81
- B16 — lower, 0.31
- B17 — higher, 1.1
- B18 — lower, 0.48
- B19 — higher, 1.1
- B20 — lower, 0.24
